Measured values as given in article PMC12607152.

Assays:
[1] = biological target: T1, CcpA (catabolite control protein A) (Staphylococcus aureus (XN108?)) (UniProt P99175); assay: competition; details: not given in the material; EMSA as previously described (ref 22)
T1 sequence: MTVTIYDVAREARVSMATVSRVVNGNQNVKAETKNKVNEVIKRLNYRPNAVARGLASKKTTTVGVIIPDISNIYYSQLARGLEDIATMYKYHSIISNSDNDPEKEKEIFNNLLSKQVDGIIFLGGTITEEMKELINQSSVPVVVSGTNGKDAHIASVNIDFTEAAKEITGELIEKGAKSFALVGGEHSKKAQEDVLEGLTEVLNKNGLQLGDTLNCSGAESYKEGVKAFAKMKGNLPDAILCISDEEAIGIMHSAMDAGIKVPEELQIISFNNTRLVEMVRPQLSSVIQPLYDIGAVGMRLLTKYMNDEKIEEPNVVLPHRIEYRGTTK

[2] = biological target: T1, CcpA (catabolite control protein A) (Staphylococcus aureus (XN108?)); assay: EMSA; details: not given in the material; EMSA as previously described (ref 22)

Sequence	binding [1]	binding [2]
CAGTCCTCAACTCTTTTAATGTTTTCATGTTGTCACCGCCTTTCGTAAACCTAATATAATACGAAATTTTCGTATTGTCAACATTAAATACGTTTTTTTCGTAAAAAACTTTACTATGATATGAAAATTTCGTATAATAAGAAAAAAGGAGGTAAGTAAT (double strand) [PcI unlabeled competitor]	binds	–
CAGTCCTCAACTCTTTTAATGTTTTCATGTTGTCACCGCCTTTCGTAAACCTAATATAATACGAAATTTTCGTATTGTCAACATTAAATACGTTTTTTTCGTAAAAAACTTTACTATGATATGAAAATTTCGTATAATAAGAAAAAAGGAGGTAAGTAAT (double strand) [PcI probe (160-bp region upstream of cI)]	–	binds
